The target of this assay is constitutively active mutant (CAM) Asn119Ser CXCR4 receptor (human) (UniProt P61073). The assay is described as follows: cell-based or functional assay.
Sequence of constitutively active mutant (CAM) Asn119Ser CXCR4 receptor (human) (P61073 whole entry N119S): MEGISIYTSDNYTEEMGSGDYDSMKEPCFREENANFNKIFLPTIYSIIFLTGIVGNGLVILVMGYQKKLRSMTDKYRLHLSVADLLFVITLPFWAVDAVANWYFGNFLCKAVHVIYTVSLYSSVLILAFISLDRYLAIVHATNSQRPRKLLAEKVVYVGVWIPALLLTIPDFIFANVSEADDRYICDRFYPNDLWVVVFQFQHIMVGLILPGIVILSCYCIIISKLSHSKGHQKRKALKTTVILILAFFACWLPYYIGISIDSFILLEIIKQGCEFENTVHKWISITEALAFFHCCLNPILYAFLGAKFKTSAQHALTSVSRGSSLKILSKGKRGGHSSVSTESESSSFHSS

On to T140 (peptide), for which the inhibition of SDF-1-stimulated [35S]GTPγS binding is -159% and the inhibition of basal [35S]GTPγS binding was -17%.

The values are drawn from patent US20110020218A1.
